{"source": "patent US20050208610", "key": {"[1]": {"tested_on": "Apolipoprotein CIII purified from plasma derived from multiple human donors", "sequence (chain, as listed by the source)": "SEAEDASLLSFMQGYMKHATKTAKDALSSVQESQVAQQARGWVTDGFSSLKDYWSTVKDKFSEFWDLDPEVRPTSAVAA"}, "[2]": {"tested_on": "apolipoprotein CIII fragment corresponding to amino acids 41-79 (SEQ ID NO:4), designated CR001", "sequence (chain, as listed by the source)": "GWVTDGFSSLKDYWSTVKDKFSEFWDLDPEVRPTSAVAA"}}, "data": [{"substance": "factor Xa", "values": [{"measurement": "factor Xa activity when tested alone on the chromogenic substrate S-2765", "setting": "[1]", "value": "neither apoliproprotein CIII nor the apolipoprotein CIII fragment have any direct inhibitory effect on factor Xa activity"}, {"measurement": "factor Xa activity when tested alone on the chromogenic substrate S-2765", "setting": "[2]", "value": "neither apoliproprotein CIII nor the apolipoprotein CIII fragment have any direct inhibitory effect on factor Xa activity"}]}]}
